The values below come from article doi:10.1101/2020.10.28.357137.

This experiment addresses SARS-CoV-2 Spike S2 protein fused to the pilot peptide CilPP, on S-EVs (SARS-CoV-2). In words: non-reducing SDS-PAGE and Western blot. On the technique in general: In western blotting, separated proteins are transferred to a membrane and probed.

In turn, “SARS-CoV-2 Spike S2 protein fused to the pilot peptide CilPP, on S-EVs (domain or fragment)” gave a stoichiometry N of 3.

What is called stoichiometry N is the number of molecules, sites or subunits per partner or assembly.
